From the supplement of paper PMC10724198
± gives the standard deviation of the averaged measurements.

Legend:
Assay in all cases: protein stability index of tFT-peptide fusion (C-terminal peptide) (PSI (0-1 scale)); higher = more stable (slower turnover)
Saccharomyces cerevisiae [1] = details: temperature: 30 C
Description: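 MPS profiling in S. cerevisiae of the yeast C-terminome library: the last 12 aa of each annotated ORF are fused to the C-terminus of a sfGFP-mCherry timer, after a GGGS linker. Cells are FACS-sorted into 8 mCherry/sfGFP bins and deep-sequenced. PSI runs from 0 (unstable) to 1 (stable); wild type and das1Δ backgrounds, two technical replicates each.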

Saccharomyces cerevisiae [2] = system: Saccharomyces cerevisiae
Description: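 MPS profiling in S. cerevisiae of the tFT-X12 degron library: putative degron peptides plus stable controls, 12 aa, fused to the C-terminus of a sfGFP-mCherry timer. Cells are FACS-sorted into 8 mCherry/sfGFP bins and deep-sequenced. PSI runs from 0 (unstable) to 1 (stable). Backgrounds are wild type, das1Δ and doa10Δ at 30 °C, and wild type, das1Δ, cdc34-1 and cdc53-1 at 37 °C; 2-3 technical replicates each.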

Saccharomyces cerevisiae [3] = details: genetic background: wild type; temperature: 30 C
[4] = genetic background: das1 deletion
[5] = genetic background: cdc34-1, temperature: 37 C
[6] = genetic background: cdc53-1, temperature: 37 C
[7] = genetic background: das1 deletion, temperature: 30 C
[8] = genetic background: das1 deletion, temperature: 37 C
[9] = genetic background: doa10 deletion, temperature: 30 C
[10] = genetic background: wild type, temperature: 30 C
[11] = genetic background: wild type, temperature: 37 C

Sequence	protein stability index (Saccharomyces cerevisiae [1]; [4])	protein stability index (Saccharomyces cerevisiae [1]; genetic background: wild type)	protein stability index (Saccharomyces cerevisiae [2]; [5])	protein stability index (Saccharomyces cerevisiae [2]; [6])	protein stability index (Saccharomyces cerevisiae [2]; [7])	protein stability index (Saccharomyces cerevisiae [2]; [8])	protein stability index (Saccharomyces cerevisiae [2]; [9])	protein stability index (Saccharomyces cerevisiae [2]; [10])	protein stability index (Saccharomyces cerevisiae [2]; [11])	protein stability index (Saccharomyces cerevisiae [3])
ADIMEKVHKWFA [PSE1 C-terminal 12 aa]	0.68931 ± 0.00046	0.6649 ± 0.0041								
ADKELSFEINVK [BRR2 C-terminal 12 aa]	0.6946 ± 0.003	0.741 ± 0.066								
AFSDLSTLENAS [ATG42 C-terminal 12 aa]	0.7267 ± 0.001	0.723 ± 0.03								
AFTRRRFMNKSL [ARC18 C-terminal 12 aa]	0.69 ± 0.012	0.485 ± 0.034								
AGIHPDRAKLLK [NOP6 C-terminal 12 aa]	0.68 ± 0.013	0.6934 ± 0.0056								
WILLVLACFSSG			0.25 ± 0.0033	0.335 ± 0.051	0.272 ± 0.036	0.40822 ± 2.1e-05	0.215 ± 0.011	0.249 ± 0.034	0.361 ± 0.017	0.325 ± 0.0036
WLGCVLIGWHVL			0.355 ± 0.0098	0.413 ± 0.0055	0.288 ± 0.048	0.481 ± 0.01	0.169 ± 0.0054	0.19 ± 0.017	0.364 ± 0.052	0.27 ± 0.011
WLKLWSYVTHLG			0.66 ± 0.047	0.723 ± 0.0092	0.632 ± 0.025	0.717 ± 0.022	0.303 ± 0.0094	0.346 ± 0.021	0.581 ± 0.017	0.477 ± 0.036
WSLRFRRMMLRC			0.3765 ± 0.00088	0.425 ± 0.0072	0.429 ± 0.028	0.534 ± 0.0069	0.137 ± 0.0015	0.127 ± 0.026	0.16 ± 0.024	0.283 ± 0.015
WVVVARIFSVFF			0.484 ± 0.014	0.561 ± 0.02	0.445 ± 0.0061	0.57 ± 0.0013	0.308 ± 0.011	0.35 ± 0.018	0.469 ± 0.038	0.515 ± 0.12
WVVVKITAHTAT			0.323 ± 0.028	0.38 ± 0.021	0.22 ± 0.02	0.405 ± 0.018	0.185 ± 0.0081	0.222 ± 0.021	0.4 ± 0.0065	0.326 ± 0.016
WYAGIVFTRVWM			0.54 ± 0.01	0.611 ± 0.026	0.487 ± 0.015	0.654 ± 0.03	0.466 ± 0.015	0.482 ± 0.02	0.622 ± 0.013	0.5 ± 0.0095
YAFLWCVFYLSF			0.228 ± 0.0071	0.235 ± 0.03	0.222 ± 0.028	0.337 ± 0.01	0.216 ± 0.0098	0.196 ± 0.017	0.305 ± 0.0082	0.289 ± 0.021
YCCDYFMFVLVV			0.148 ± 0.0029	0.189 ± 0.024	0.206 ± 0.044	0.3012 ± 0.0022	0.184 ± 0.009	0.183 ± 0.032	0.248 ± 0.01	0.255 ± 0.033
YDLRRIGRIGVG			0.316 ± 0.02	0.404 ± 0.012	0.348 ± 0.019	0.402 ± 0.016	0.3542 ± 0.003	0.338 ± 0.0099	0.381 ± 0.026	0.363 ± 0.016
YFIVVSWFLVCW			0.0981 ± 0.019	0.199 ± 0.022	0.114 ± 0.029	0.218 ± 0.0028	0.072 ± 0.017	0.121 ± 0.0079	0.168 ± 0.029	0.184 ± 0.005
YFLFRYIVITVF			0.0486 ± 0.029	0.0672 ± 0.021	0.0711 ± 0.025	0.135 ± 0.026	0.0326 ± 0.015	0.0569 ± 0.012	0.06947 ± 0.00069	0.0865 ± 0.032

Sequence	protein stability index (Saccharomyces cerevisiae [1]; [4])	protein stability index (Saccharomyces cerevisiae [1]; genetic background: wild type)	protein stability index (Saccharomyces cerevisiae [2]; [5])	protein stability index (Saccharomyces cerevisiae [2]; [6])	protein stability index (Saccharomyces cerevisiae [2]; [7])	protein stability index (Saccharomyces cerevisiae [2]; [8])	protein stability index (Saccharomyces cerevisiae [2]; [9])	protein stability index (Saccharomyces cerevisiae [2]; [10])	protein stability index (Saccharomyces cerevisiae [2]; [11])	protein stability index (Saccharomyces cerevisiae [3])
YFRKDYRKMAQH			0.594 ± 0.049	0.74478 ± 0.00072	0.669 ± 0.06	0.7429 ± 0.0026	0.17256 ± 0.00013	0.163 ± 0.046	0.453 ± 0.055	0.255 ± 0.15
YGAGDLTKYFIV			0.637 ± 0.037	0.684 ± 0.046	0.607 ± 0.0086	0.726 ± 0.039	0.114 ± 0.0065	0.122 ± 0.028	0.174 ± 0.034	0.106 ± 0.016
YHFRLLVTCCPC			0.273 ± 0.0031	0.325 ± 0.0097	0.264 ± 0.016	0.38 ± 0.01	0.225 ± 0.0037	0.257 ± 0.0088	0.351 ± 0.015	0.321 ± 0.0033
YLCCFSVAFFLG			0.175 ± 0.0039	0.331 ± 0.098	0.206 ± 0.039	0.3961 ± 0.00067	0.131 ± 4.8e-05	0.153 ± 0.018	0.317 ± 0.024	0.257 ± 0.072
YLFDQYDWYKSM			0.643 ± 0.063	0.7663 ± 0.007	0.666 ± 0.041	0.8049 ± 0.0067	0.156 ± 0.0072	0.162 ± 0.027	0.348 ± 0.02	0.368 ± 0.081
YLLTAFLSAFNP			0.554 ± 0.054	0.683 ± 0.018	0.543 ± 0.019	0.55 ± 0.0074	0.529 ± 0.041	0.522 ± 0.031	0.537 ± 0.02	0.495 ± 0.11
YLMVSKMSLRIG			0.602 ± 0.021	0.643 ± 0.0084	0.532 ± 0.021	0.609 ± 0.017	0.296 ± 0.054	0.306 ± 0.026	0.516 ± 0.025	0.401 ± 0.0052
YPGMFLQLVWWI			0.4297 ± 0.0022	0.552 ± 0.036	0.433 ± 0.03	0.5804 ± 0.0042	0.1211 ± 0.0011	0.117 ± 0.0026	0.126 ± 0.0019	0.176 ± 0.026
YPSASLLPLFSC			0.594 ± 0.06	0.733 ± 0.017	0.622 ± 0.014	0.748 ± 0.015	0.126 ± 0.018	0.136 ± 0.017	0.184 ± 0.016	0.171 ± 0.004
YQFDGLVFLRLS			0.716 ± 0.02	0.724 ± 0.0064	0.645 ± 0.014	0.774 ± 0.018	0.3501 ± 0.0014	0.4 ± 0.017	0.6515 ± 0.00071	0.4808 ± 0.0011
YRFVWRWIPICA			0.0342 ± 0.01	0.0919 ± 0.045	0.12 ± 0.038	0.116 ± 0.032	0.0307 ± 0.0093	0.038 ± 0.014	0.057 ± 0.026	0.0631 ± 0.022
YRWERIYIGLRL			0.397 ± 0.037	0.523 ± 0.036	0.49 ± 0.039	0.615 ± 0.019	0.191 ± 0.008	0.188 ± 0.018	0.36 ± 0.0093	0.291 ± 0.024
YSALHNPPQPVT			0.665 ± 0.032	0.725 ± 0.014	0.6556 ± 0.0065	0.7216 ± 0.0049	0.658 ± 0.014	0.658 ± 0.011	0.6971 ± 0.0062	0.736 ± 0.02
YTLWFLAWGLVF			0.262 ± 0.036	0.308 ± 0.016	0.241 ± 0.033	0.3865 ± 0.0028	0.209 ± 0.011	0.22 ± 0.034	0.36 ± 0.025	0.315 ± 0.023
YWRNYLVLVCKF			0.836 ± 0.04	0.794 ± 0.075	0.592 ± 0.023	0.778 ± 0.023	0.487 ± 0.07	0.481 ± 0.046	0.613 ± 0.024	0.359 ± 0.065
YYLHFRFFIYVF			0.0536 ± 0.019	0.0916 ± 0.0088	0.108 ± 0.035	0.201 ± 0.0051	0.0759 ± 0.019	0.0626 ± 0.013	0.13 ± 0.0084	0.113 ± 0.031
